Experiment: label from the status in PepcDB records

Sequence | protein production
MQVTADAVPKLNRAAVAAGSADIDAVSGATYTSAGYVKSLQSALDKAAAAAGPAAQESSGADSGSGGGGRSEGDAGQGTQVLTGDAAQTQYGPVQVRVTVSGGRITDVEALQAPKGGRSDQVTADAVPRLNRAAVAAGTADIDAVSGATYTSAGYTQSLQSALDRAGGLEHHHHHH | failed
YIGLVNSFAQKKKLSVNYEQCEPNSELPQRFICKCKIGQTMYGTGSGVTKQEAKQLAAKEAYQKLLKSPPKTAGT | not failed
MNISSAQFIPGVHTVEEIEAEIHKNLHISKSCSYQKVPNSHKEFTKFCYEVYNEIKISDKEFKEKRAALDTLRLCLKRISPDAELVAFGSLESGLALKNSDMDLCVLMDSRVQSDTIALQFYEELIAEGFEGKFLQRARIPIIKLTSDTKNGFGASFQCDIGFNNRLAIHNTLLLSSYTKLDARLKPMVLLVKHWAKRKQINSPYFGTLSSYGYVLMVLYYLIHVIKPPVFPNLLLSPLKQEKIVDGFDVGFDDKLEDIPPSQNYSSLGSLLHGFFRFYAYKFEPREKVVTFRRPDGYLTKQEKGWTSATEHTGSADQIIKDRYILAIEDPFEISHNVGRTVSSSGLYRIRGEFMAASRLLNSRSYPIPYDSLFEEAPIPPRRQKKTDEQSNKKLLNETDGDNS | not failed
MNVKRIKKRMFITFSIIAVLAIALYIFLQTAPFGNPPADARLERIRKSANYKDGVFKNLSNTPVMAEDASYMDMIKQQFSKDSTREPAVCIPSVKRDLSLVPSDRPVITWFGHSTYLIQTEGKNILIDPVFCTSTSPVQFVGNKKYKGTEVYTPADFPAINYLILTHDHYDHLDYQTTLDMQSKVFSYYMPLGVGSHLESWGIDTAKLHELDWWQEIDLEPGYKLVCLPARHFSGRSITDRGKTLWASYLLITPTHKIYIGGDSGYDTHFKQIADKYGAVDIAFLESGQYNAYWPYIHMMPEQTVQAAKDLQAKVLLPVHWGKYTLALHPWDEPIKRLTLEAHKQQVNVATPMIGEPVILDSILPHSTWWVPEGKK | failed
MLYNSYMLLTYQFKLNPTSEQVVILETWGELLRRHWNYALGERLDWLRRTRSLLDRCSLVSEPIGGIPDKPDYYTQASDLQQTKDLFPDYKNIYADCQQQNLMRLDKAWKRWLIPDKKGNRGGKPRFKKRGDISSFTFPRVNSPKAGAHLTGNILKLSKIGEIEVILHRPIPNGSEIKQATILSKSDGWYVSFSLEDKTVPELLPIDEIKTATGIDVGLEKFLTTAHGQSIEVPQYSRKTQSKLARQQRKLARKIHGSKNYQKQASRVARIHLHVARQRKEFHYQVAHWLVKSYDLIVFENLNIRGLARTRLAKSILDVAWGAFLQIMQAVAVRRGKHTRGVDPRGTSINCSGCGQRVEKTLAVRVHNCSCGLVIDRDWNSAINLLNYGSVGLPIPGCGGLGVSQPVKQQVSYVNLRCSRYTACS | failed
MDTQTLNSDLRVFMHHIYEFEKGVRSMVLATLANDDIPYAEERLRSRQIPYFAQPTPNTERTNLFFGCKECMEAIRLFVSGRSLNSLTPEEDFIIGAMLGYDICRQCERYCRRKSNS | not failed
MSLNNQDISIGKLSRLKIWITDNHLSDDQWSNTKKFIIIKITTEDGIEGWGEAFSINFREKGIAIIIKELFREISNIPNLSIKSFYNKISLLSDGHRGLDFSSATSAIEIALWDISGKLKNLPLNSLLTKSPKPNVPIYATCWSDLKKDTNDYLRQIEKFYGKKYGGIKIYPMLDSLSISIQFVEKVREIVGDELPLMLDLAVPEDLDQTKSFLKEVSSFNPYWIEEPVDGENISLLTEIKNTFNMKVVTGEKQSGLVHFRELISRNAADIFNPDISGMGGLIDIIEISNEASNNGIFISPHCWNSMSVSASAMLHVCSSIPNSEKAEIFPDYINFSKKFCELPFDIIDNKAHINKSAGLGIVIHEDILSELSIYSLDEKSNDEGHHHHHH | not failed
MNIVIVVFSTDEETLRKFKDIIKKNGFKVRTVRSPQELKDSIEELVKKYNATIVVVVVDDKEWAEKAIRFVKSLGAQVLIIIYDQDQNRLEEFSREVRRRGFEVRTVTSPDDFKKSLERLIREVGSLEHHHHHH | not failed
MMNDIAHNLAQVRDKISAAATRCGRSPEEITLVAVSKTKPASAIAEAIDAGQRQFSEHYVQEGVDKIRHFQELGVTGLEWNFAGPLQSNKSRLVAEHFDWCITIDRLRIATRLNDQRPAELPPLNVLIQINISDENSKSGIQLAELDELAAAVAELPRLRLRGLSAIPAPESEYVRQFEVARQMAVAFAGLKTRYPHIDTLALGQSDDMEAAIAAGSTMVAIGTAIFGARDYSKKGSLEHHHHHH | not failed
MVKKMKSKTISTIHIDTFSIPFPFVAMSNKVCRGYTLIRAFGITALAILILVGIAGAAPFAYVTNIGDYDQRGPNVAVIDTATNNVTARVPLGGGWPVGVAVNPAGTKIYVVDSPSDSTVYVIDTATNKVSAKVNLGSSYPARITFNPAGTRVYVTKQHDYTDIFVINPATNTLMAPIIVGPSTYGIAFTPDGKKIYAANCNNNTIYVIDAATNKVTANISVGDSPCGIAVTPDGKKVYVLNYDSNTVSVINTATDNVIATVPVGNSPNLVAVTSNGNKVYVANNNTVSVIDTATNNVIATIPVGTSSRKIVINPDGNRVYLVNFGSNSVSVIDTATDNVIANVPVGEQPMGIAVTPDGKRVYVTNSRSSNVSVIDTATDTVAATVNAGILPTGVVIVPLTDSDMTSQSTGAISSSTEDRGIEVTNISSSEEINAVELNNYSDENNPESDNDNGSNANDSSKNNSTPGFGLLESLAGLYVGWKLGKR | failed
MMNLPKNIQQPLSLIYLDANATTQVLPQAASAALSTMETLFGNPSSSHISGLQAKQIVDKTRQQAKRIVGAAEGKIIFTSGATEGIQTAILSALVNVKKTLNKSLNNKSYSLLYGATEHKAVPESLKHWNKILEINAEIKAIPVDEKGQLDMAFIAKEVPNALMVCTMAVNNETGVYQDISLLDQTIRTNNPNVAWMVDCVQALGKTDLVLAQTSIDYAPFSGHKLYAPKGIGFMYVKEKAPFTAFIAGGGQESGLRSGTENLPGLAALSEIFSMLLGESEASFTPIKTLHLYRQQLVSALTQAFPEITFNHSFENSVATTLNFAIPGFSSKEIMDLFDAANIRVSSGSACSSKVTRSFVLDAMGLPAWQSESAIRMSFGPAMTQTEIDIACSRIVSAAQALVQSCLTLDKKNIDTQTMNTSSTTNKTELDGLVQFKAGGSCSWLYVDKKTRSAVFIDPLSEVSERLQTLLTCRGLNLVAVIDTHGHADHKSCRNGIAKKFLAEQQTEYLGWPAGAQTTTIHGQTFQYLILGDKWLIKVATPGHTDDSMSLLLCDPVTDSAEKLQVHYAFCGDLILMDSIGRSNFSTSSAPAMYSSLKLMKSLIGNNSLICPSHDYHNEFTTCLETEMKRNSLLRQVINSEIDIEEFTSKKIKMDKDIINESGSEIMCGALIGACQKVVVREYDSASLTKAVKKSSDMKLIDIREPHEYALQHDEKFTSNVPLTRLVQFVKEQQQNKEQEFVLVCRSGGRSQLAAQALARLGFENVGHLKGGYALHQY | failed
MPHPAERSRHGRGWFEKLAEAASNLTSSPVFYCFCLLLVFAFIVAHAVGLELTWQLLIGDIMTAVNLLLLALLKNSERRAEHAIQHKLDSIAAALLEQREGHSRQAHEELRKAIGIEDEF | failed
MDSPKRGGPRVRPSFVFCTRTCFPTPPDRMSDSESADPHSPSPTGDGQDTEPRDADGHEVARRGDTEAMEGLLEQGMDPNHTNEHGHSLLMIAAYSDQPEMADLLIEHGADPNRSDPSGSTPLMGCCFKGLAEAAEVLIEAGADVNATGARGATALMYAATYGESALVDLLLEHGADPTTTNEQGQTAAEQAAAEGHEEIAERLRQATAGA | failed
MLNKFKKIVGVSVLVGCLGVLQAKNSLFVLPYEQKDALNSLVSGISNARESVKIAIYSFTHRDIARAIKSVASRGIKVQIIYDYESNHHNKQSTIGYLDKYPNTKVCLLKGLKAKNGNYYGIMHQKVAIIDDKIVFLGSANWSKNAFENNYEVLLKTDDTETILKAKSYYQKMLGSCVGF | failed
MKKGTDLLKKGFAKMVKHGVVMDVTNVEQAQIAEEAGAVAVMALERVPADIRAAGGVARMSDPALIEEIMDAVSIPVMAKCRIGHTTEALVLEAIGVDMIDESEVLTQADPFFHIYKKKFNVPFVCGARNLGEAVRRIWEGAAMIRTKGEAGTGNIVEAVRHMRLMNEAIAQLQRMTDEEVYGVAKFYANRYAELAKTVREGMGLPATVLENEPIYEGFTLAEIIDGLYEVLLEVKKLGRLPVVNFAAGGVATPADAALMMQLGSDGVFVGSGIFKSENPLERARAIVEATYNYDKPDIVAEVSKNLGEAMKGIDITQISEAEKMQYRGD | not failed
